# From article PMC3521592 (Biochemistry, 2012)
# Read-outs that look alike come from different tables or passages of the source.
# T1: untagged HPV16-E7_(1–98) (human papillomavirus 16 (HPV16)), P03129
# T1 chain: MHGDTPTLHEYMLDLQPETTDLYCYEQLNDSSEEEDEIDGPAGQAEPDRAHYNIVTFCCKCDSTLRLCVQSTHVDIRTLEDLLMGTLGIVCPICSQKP
# Columns and labels:
# [1] = target: T1, untagged HPV16-E7_(1–98) (human …); assay: AUC; settings: remark: other sources report otherwise
# [2] = target: T2, p300CH1, CH1 domain of human p300 (residues 323–424), untagged (human, UniProt Q09472 323-424); assay: AUC
# T2 sequence (Q09472 323-424): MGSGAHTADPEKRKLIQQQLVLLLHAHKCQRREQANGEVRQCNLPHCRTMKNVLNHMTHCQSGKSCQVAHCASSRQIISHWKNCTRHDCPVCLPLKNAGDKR
# [3] = target: T2, p300CH1, CH1 domain of human p300 …; assay: pull-down
# [4] = target: T2, p300CH1, CH1 domain of human p300 …; assay: AUC; remark: listed apart in the source
Binder,stoichiometry N [2],stoichiometry N [4],other results
untagged HPV16-E7_(1–98) (natural protein) MHGDTPTLHEYMLDLQPETTDLYCYEQLNDSSEEEDEIDGPAGQAEPDRAHYNIVTFCCKCDSTLRLCVQSTHVDIRTLEDLLMGTLGIVCPICSQKP,1,,stoichiometry N [1]: 2
MHGDTPTLHEYMLDLQPETTDLYCYEQLNDSSEEEDEIDGPAGQAE (domain or fragment) [GST-HPV16-E7_(1–46)],,,binding result [3]: binds
6xHis-Ad5-E1A_(1–189) (domain or fragment) MRHIICHGGVITEEMAASLLDQLIEEVLADNLPPPSHFEPPTLHELYDLDVTAPEDPNEEAVSQIFPDSVMLAVQEGIDLLTFPPAPGSPEPPHLSRQPEQPEQRALGPVSMPNLVPEVIDLTCHEAGFPPSDDEDEEGEEFVLDYVEHPGHGCRSCHYHRRNTGDPDIMCSLCYMRTCGMFVYSPVSE,,1,
6xHis-Ad5-E1A_(1–138) (domain or fragment) MRHIICHGGVITEEMAASLLDQLIEEVLADNLPPPSHFEPPTLHELYDLDVTAPEDPNEEAVSQIFPDSVMLAVQEGIDLLTFPPAPGSPEPPHLSRQPEQPEQRALGPVSMPNLVPEVIDLTCHEAGFPPSDDEDEE,,1,
untagged Ad5-E1A_(1–77) (domain or fragment) MRHIICHGGVITEEMAASLLDQLIEEVLADNLPPPSHFEPPTLHELYDLDVTAPEDPNEEAVSQIFPDSVMLAVQEG,,1,
untagged HPV16-E7_(1–51) (domain or fragment) MHGDTPTLHEYMLDLQPETTDLYCYEQLNDSSEEEDEIDGPAGQAEPDRAH,1,,
